Common to all, as to test: SPR
Test [1] deals with little brown bat ACE2 ectodomain fused with mouse Fc (little brown bat).
The target of test [2] is Malayan pangolin ACE2 ectodomain fused with mouse Fc (Malayan pangolin).
The target of test [3] is alpaca ACE2 ectodomain fused with mouse Fc (alpaca).

Drawing on PMC7526519, this text covers fold lower affinity than SARS-CoV-2 RBD to the same ACE2 and Kd for two substances.

The Kd is a measure of binding affinity in units of concentration.

Consider “SARS-CoV receptor binding domain (RBD), His-tagged (from UniProt P59594 306-527) (domain or fragment)”, for which the fold lower affinity than SARS-CoV-2 RBD to the same ACE2 in test [1] was 40 fold; in test [2], 4 fold.

“SARS-CoV-2 receptor binding domain (RBD), His-tagged (from UniProt P0DTC2 319-541) (domain or fragment)” had a Kd in test [3] of 16.5 µM.
